{"source": "patent US6803203B1", "about": "“DNA-PK assay” (Brookhaven Science Associates, priority 1993, dated 2004)", "key": {"DNA-PK [1]": {"target": "T1, DNA-PK (Homo sapiens, UniProt P78527)", "T1 construct": "DNA-PK was purified from HeLa cells; endogenous in cells; host or cells: HeLa S3 cells; the endogenous enzyme was purified in house by chromatography", "test": "DNA-PK activity in extracts of human cell lines", "assay_type": "biochemical", "details": "for Specific Activity + DNA: + calf thymus DNA 10 μg/ml; for Specific Activity + DNA / Specific Activity − DNA: peptide 0.2 mM; for Specific Activity − DNA: no added DNA", "method": "(§1) Extracts of additional primate and rodent cells were tested for the presence of DNA-PK activity in accordance with the method of the present invention. The DNA-PK activity was determined using the methods described in Examples 1, 4 and 5 for seven human cell lines, two African green monkey kidney lines, and six rodent cell lines.\n(§2) Extracts were prepared essentially as described in Example 10. Cells were lysed by freezing and thawing in hypotonic buffer; soluble (S10) “cytoplasmic” and insoluble in (P10) “nuclear” fractions were made by centrifuging lysates at 10,000×g for 10 min. The insoluble fraction was extracted with buffer containing 0.5 M KCl, which releases any DNA-PK that is bound to DNA. After centrifugation of the salt-washed pellet fraction, which removed the remaining insoluble material, the salt extract (P10S) was diluted and assayed as previously described.\n(§3) Protein concentrations, determined using the Bio-Rad dye binding assay, were between 0.3 and 6 mg/ml. Extracts were incubated at 30° C. for 10 min with each peptide at 0.2 mM in the absence of added DNA (−DNA) or with 10 μg/ml calf thymus DNA (+DNA). After incubation the reaction mixtures were acidified with an equal volume of 30% acetic acid and spotted on to Whatman P-81 phosphocellulose paper (Whatman, Inc., Clifton, N.J.). The filters then were washed extensively in 15% acetic acid before the adsorbed radioactivity was quantitated as described in Example 5.\n(§4) The amount of phosphate incorporated was calculated from the specific activity of the ATP. The rate of phosphate incorporation into the Ser-Gln-Glu peptide (Table 1) (SEQ ID NO: 11) in the presence of calf thymus DNA was approximately linear throughout the 10 minute reaction incubation period. Parallel assays were performed without added peptide, and these background values were subtracted to produce the activities that are shown in Table 3. Background values varied but, in all cases, were less than 0.2 nmol/min/mg (a few percent of the activity present in human cells). The specific activities were calculated from the total activity in the two fractions divided by the total protein in the two fractions. The percent of total DNA-PK activity in the S10 and P10S fractions was determined with peptide (SEQ ID NO: 11) in the presence of added calf thymus DNA. Extracts without substantial DNA-PK activity were examined for their ability to inhibit purified DNA-PK. Inhibitory activity was not detected."}, "DNA-PK [2]": {"system": "DNA-PK", "test": "DNA-PK activity in extracts of hamster cell lines", "assay_type": "biochemical, Chinese hamster", "details": "peptide 0.2 mM; for Specific Activity + DNA: + calf thymus DNA 10 μg/ml; for Specific Activity − DNA: no added DNA", "method": "as §1, §2, §3, §4"}}, "note": "No end group written: not given here."}
{"sequence": "EPPLSEQAFADLWKK [SEQ ID NO: 20]", "values": [{"measurement": "Specific Activity + DNA", "setting": "DNA-PK [1]; Human 293-S, P10S", "result": 0.04, "unit": "nmol PO4/min/mg protein"}, {"measurement": "Specific Activity − DNA", "setting": "DNA-PK [1]; Human 293-S, P10S", "result": 0.0, "unit": "nmol PO4/min/mg protein"}, {"measurement": "Specific Activity + DNA", "setting": "DNA-PK [1]; Human 293-S, S10", "result": 0.01, "unit": "nmol PO4/min/mg protein"}, {"measurement": "Specific Activity − DNA", "setting": "DNA-PK [1]; Human 293-S, S10", "result": 0.0, "unit": "nmol PO4/min/mg protein"}, {"measurement": "Specific Activity + DNA", "setting": "DNA-PK [1]; Human A549, P10S", "result": 0.01, "unit": "nmol PO4/min/mg protein"}, {"measurement": "Specific Activity − DNA", "setting": "DNA-PK [1]; Human A549, P10S", "result": 0.06, "unit": "nmol PO4/min/mg protein"}, {"measurement": "Specific Activity + DNA", "setting": "DNA-PK [1]; Human A549, S10", "result": 0.0, "unit": "nmol PO4/min/mg protein"}, {"measurement": "Specific Activity − DNA", "setting": "DNA-PK [1]; Human A549, S10", "result": 0.02, "unit": "nmol PO4/min/mg protein"}, {"measurement": "Specific Activity + DNA", "setting": "DNA-PK [1]; Human HPB-ALL, P10S", "result": 0.05, "unit": "nmol PO4/min/mg protein"}, {"measurement": "Specific Activity − DNA", "setting": "DNA-PK [1]; Human HPB-ALL, P10S", "result": 0.04, "unit": "nmol PO4/min/mg protein"}, {"measurement": "Specific Activity + DNA", "setting": "DNA-PK [1]; Human HPB-ALL, S10", "result": 0.0, "unit": "nmol PO4/min/mg protein"}, {"measurement": "Specific Activity − DNA", "setting": "DNA-PK [1]; Human HPB-ALL, S10", "result": 0.04, "unit": "nmol PO4/min/mg protein"}, {"measurement": "Specific Activity + DNA", "setting": "DNA-PK [1]; Human HeLa-JW, P10S", "result": 0.1, "unit": "nmol PO4/min/mg protein"}, {"measurement": "Specific Activity − DNA", "setting": "DNA-PK [1]; Human HeLa-JW, P10S", "result": 0.0, "unit": "nmol PO4/min/mg protein"}, {"measurement": "Specific Activity + DNA", "setting": "DNA-PK [1]; Human HeLa-JW, S10", "result": 0.1, "unit": "nmol PO4/min/mg protein"}, {"measurement": "Specific Activity − DNA", "setting": "DNA-PK [1]; Human HeLa-JW, S10", "result": 0.0, "unit": "nmol PO4/min/mg protein"}, {"measurement": "Specific Activity + DNA", "setting": "DNA-PK [1]; Human MRC 5, P10S", "result": 0.04, "unit": "nmol PO4/min/mg protein"}, {"measurement": "Specific Activity − DNA", "setting": "DNA-PK [1]; Human MRC 5, P10S", "result": 0.02, "unit": "nmol PO4/min/mg protein"}, {"measurement": "Specific Activity + DNA", "setting": "DNA-PK [1]; Human MRC 5, S10", "result": 0.30, "unit": "nmol PO4/min/mg protein"}, {"measurement": "Specific Activity − DNA", "setting": "DNA-PK [1]; Human MRC 5, S10", "result": 0.11, "unit": "nmol PO4/min/mg protein"}, {"measurement": "Specific Activity + DNA", "setting": "DNA-PK [1]; Human Raji, P10S", "result": 0.0, "unit": "nmol PO4/min/mg protein"}, {"measurement": "Specific Activity − DNA", "setting": "DNA-PK [1]; Human Raji, P10S", "result": 0.0, "unit": "nmol PO4/min/mg protein"}, {"measurement": "Specific Activity + DNA", "setting": "DNA-PK [1]; Human Raji, S10", "result": 0.0, "unit": "nmol PO4/min/mg protein"}, {"measurement": "Specific Activity − DNA", "setting": "DNA-PK [1]; Human Raji, S10", "result": 0.08, "unit": "nmol PO4/min/mg protein"}, {"measurement": "Specific Activity + DNA", "setting": "DNA-PK [1]; Human T98G, P10S", "result": 0.0, "unit": "nmol PO4/min/mg protein"}, {"measurement": "Specific Activity − DNA", "setting": "DNA-PK [1]; Human T98G, P10S", "result": 0.0, "unit": "nmol PO4/min/mg protein"}, {"measurement": "Specific Activity + DNA", "setting": "DNA-PK [1]; Human T98G, S10", "result": 0.01, "unit": "nmol PO4/min/mg protein"}, {"measurement": "Specific Activity − DNA", "setting": "DNA-PK [1]; Human T98G, S10", "result": 0.01, "unit": "nmol PO4/min/mg protein"}, {"measurement": "phosphorylation of the peptide by cell extracts (in words)", "setting": "DNA-PK [1]; all extracts of Example 11, with or without added DNA", "result": "None of the extracts phosphorylated the Ser-Glu-Gln peptide (SEQ ID NO: 20) at a significant rate"}, {"measurement": "Specific Activity + DNA", "setting": "DNA-PK [2]; Hamster CHO, P10S", "result": 0.06, "unit": "nmol PO4/min/mg protein"}, {"measurement": "Specific Activity − DNA", "setting": "DNA-PK [2]; Hamster CHO, P10S", "result": 0.0, "unit": "nmol PO4/min/mg protein"}, {"measurement": "Specific Activity + DNA", "setting": "DNA-PK [2]; Hamster CHO, S10", "result": 0.01, "unit": "nmol PO4/min/mg protein"}, {"measurement": "Specific Activity − DNA", "setting": "DNA-PK [2]; Hamster CHO, S10", "result": 0.0, "unit": "nmol PO4/min/mg protein"}, {"measurement": "Specific Activity + DNA", "setting": "DNA-PK [2]; Hamster V79, P10S", "result": 0.05, "unit": "nmol PO4/min/mg protein"}, {"measurement": "Specific Activity − DNA", "setting": "DNA-PK [2]; Hamster V79, P10S", "result": 0.05, "unit": "nmol PO4/min/mg protein"}, {"measurement": "Specific Activity + DNA", "setting": "DNA-PK [2]; Hamster V79, S10", "result": 0.0, "unit": "nmol PO4/min/mg protein"}, {"measurement": "Specific Activity − DNA", "setting": "DNA-PK [2]; Hamster V79, S10", "result": 0.0, "unit": "nmol PO4/min/mg protein"}]}
